We go through one substance from patent US20160355564.

The subject of the series is recombinant proinsulin protein.

With tissue transglutaminase, the “substrate of the deamidase in test tube” value is listed as “recombinant proinsulin protein was shown to be a substrate for TG2”.
